Assay results taken from the supplement of paper PMC10219994.
± gives the standard deviation of the averaged measurements.

B1: library; a variant is named by its letters at N, in order (parent)
chain: GAGACCGCAACTGAAAAGTTGTGGNNNNNATAGTGAGTCGCTGCCTGCAAAGACACAACT

Variants of: B1
Test: ligation selection enrichment (abundance after / before one-round selection) (fold); higher = more template-directed ligation activity
Conditions: with T7Psub CACGGAUGCUAAUACGACUCACUAUA; MgCl2 25 mM; 42 °C; 4 h; pH 8.5
Method in brief: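 Two independent reactions combined a T7-transcribed RNA ligase library with five randomized core positions (0.75 μM) and RNA substrate (6 μM) in 50 mM EPPS pH 8.5, 25 mM MgCl2, run for 4 h at 42 °C. The ligated products were sequenced on a MiSeq, and only reads with quality ≥30 at all randomized positions were counted. Enrichment is the abundance after ligation divided by the abundance before ligation.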

| Variant | ligation selection enrichment |
| --- | --- |
| AGCTC | 0.104 ± 0.0069 |
| AGCTA | 0.209 ± 0.011 |
| AGCTG | 0.198 ± 0.0052 |
| CGATG | 1.3 ± 0.22 |
| CGATC | 0.294 ± 0.018 |
| CGATT | 4.38 ± 0.59 |
| CGATA | 1.05 ± 0.21 |
| AGAGA | 0.338 ± 0.038 |
| AGAGT | 0.253 ± 0.024 |
| AGAGC | 0.196 ± 0.028 |
| AGAGG | 0.288 ± 0.045 |
| GCTCG | 0.533 ± 0.037 |
| GCTCC | 0.301 ± 0.0054 |
| GCTCT | 0.165 ± 0.064 |
| TGAGT | 0.221 ± 0.024 |
| TGAGG | 0.319 ± 0.074 |
| TGAGA | 0.376 ± 0.039 |
| TGAGC | 0.156 ± 0.035 |
| TGAAA | 0.326 ± 0.022 |
| TGAAG | 0.271 ± 0.03 |
| TGAAT | 3.36 ± 0.95 |
| TGAAC | 0.25 ± 0.0069 |
| TCTTA | 0.122 ± 0.024 |
| TCTTC | 0.0955 ± 0.034 |

| Variant | ligation selection enrichment |
| --- | --- |
| TCTTG | 0.678 ± 0.067 |
| TCTTT | 0.193 ± 0.18 |
| GGATG | 0.732 ± 0.14 |
| GGATT | 1.31 ± 0.31 |
| GGATA | 0.432 ± 0.027 |
| GGATC | 0.188 ± 0.03 |
| CGACC | 0.239 ± 0.071 |
| CGACG | 0.671 ± 0.15 |
| CGACA | 0.411 ± 0.093 |
| CGACT | 1.09 ± 0.25 |
| GGCGT | 0.168 ± 0.023 |
| GGCGG | 0.252 ± 0.022 |
| GGCGA | 1.52 ± 0.26 |
| GGCGC | 0.2927 ± 0.0028 |
| TGCCC | 0.1927 ± 0.0019 |
| TGCCA | 0.144 ± 0.028 |
| TGCCT | 0.408 ± 0.18 |
| TGCCG | 0.559 ± 0.02 |
| CGCTC | 0.0791 ± 0.025 |
| CGCTG | 0.141 ± 0.026 |
| CGCTA | 0.127 ± 0.032 |
| AGATA | 0.533 ± 0.16 |
| AGATG | 0.602 ± 0.065 |
| AGATT | 1.66 ± 0.48 |

| Variant | ligation selection enrichment |
| --- | --- |
| AGATC | 0.204 ± 0.0068 |
| GGCCC | 0.192 ± 0.0055 |
| GGCCA | 0.241 ± 0.083 |
| GGCCT | 0.408 ± 0.092 |
| GGCCG | 0.746 ± 0.042 |
| CCTTC | 0.171 ± 0.02 |
| CCTTG | 0.874 ± 0.15 |
| CCTTT | 0.455 ± 0.12 |
| CCTTA | 0.159 ± 0.004 |
| TGCGT | 0.168 ± 0.021 |
| TGCGA | 2.41 ± 0.15 |
| TGCGC | 0.217 ± 0.02 |
| TGCGG | 0.221 ± 0.0095 |
| TGACA | 0.19 ± 0.052 |
| TGACT | 0.683 ± 0.3 |
| TGACG | 0.49 ± 0.13 |
| TGACC | 0.183 ± 0.0057 |
| CGCGC | 0.223 ± 0.025 |
| CGCGA | 1.1 ± 0.18 |
| CGCGT | 0.237 ± 0.0082 |
| CGCGG | 0.533 ± 0.12 |
| GGCTG | 0.393 ± 0.032 |
| GGCTA | 0.228 ± 0.037 |
| GGCTC | 0.149 ± 0.0062 |

| Variant | ligation selection enrichment |
| --- | --- |
| CGAGC | 0.246 ± 0.036 |
| CGAGT | 1.09 ± 0.25 |
| CGAGG | 0.422 ± 0.029 |
| CGAGA | 0.348 ± 0.084 |
| GCTTG | 0.955 ± 0.16 |
| GCTTC | 0.176 ± 0.038 |
| GCTTT | 0.4952 ± 0.0042 |
| GCTTA | 0.21 ± 0.0056 |
| AGACA | 0.206 ± 0.011 |
| AGACC | 0.172 ± 0.011 |
| AGACG | 0.532 ± 0.039 |
| AGACT | 0.736 ± 0.21 |
| TGCTG | 0.17 ± 0.017 |
| TGCTT | 0.0805 ± 0.021 |
| TGCTA | 0.17 ± 0.012 |
| TGCTC | 0.117 ± 0.022 |
| CCTCG | 0.55 ± 0.064 |
| CCTCT | 0.266 ± 0.11 |
| GGAGG | 0.371 ± 0.084 |
| GGAGT | 0.165 ± 0.0095 |
| GGAGA | 0.285 ± 0.02 |
| GGAGC | 0.135 ± 0.022 |
| GGCAG | 0.55 ± 0.028 |
| GGCAT | 5.15 ± 1.1 |

| Variant | ligation selection enrichment |
| --- | --- |
| GGCAA | 0.423 ± 0.11 |
| GGCAC | 0.395 ± 0.016 |
| TCTGC | 0.143 ± 0.0073 |
| TCTGT | 0.0815 ± 0.058 |
| TCTGA | 0.256 ± 0.023 |
| TCTGG | 0.417 ± 0.035 |
| GCTGC | 0.1333 ± 0.00076 |
| GCTGT | 0.15 ± 0.068 |
| GCTGG | 0.462 ± 0.073 |
| GCTGA | 0.315 ± 0.015 |
| CGAAT | 2.11 ± 0.22 |
| CGAAA | 0.31 ± 0.015 |
| CGAAC | 0.246 ± 0.0029 |
| CGAAG | 0.4199 ± 0.0032 |
| ACTTT | 0.465 ± 0.065 |
| ACTTG | 0.918 ± 0.18 |
| ACTTC | 0.192 ± 0.049 |
| ACTTA | 0.172 ± 0.0078 |
| TGATT | 2.4 ± 0.61 |
| TGATA | 0.4829 ± 0.0015 |
| TGATC | 0.143 ± 0.062 |
| TGATG | 0.708 ± 0.08 |
| AGCCA | 0.161 ± 0.018 |
| AGCCC | 0.167 ± 0.05 |

| Variant | ligation selection enrichment |
| --- | --- |
| AGCCT | 0.307 ± 0.093 |
| AGCCG | 0.709 ± 0.025 |
| AGCGA | 2.74 ± 0.25 |
| AGCGG | 0.213 ± 0.012 |
| AGCGT | 0.191 ± 0.054 |
| AGCGC | 0.269 ± 0.043 |
| TGCAC | 0.235 ± 0.059 |
| TGCAT | 3.27 ± 0.44 |
| TGCAA | 0.289 ± 0.065 |
| TGCAG | 0.216 ± 0.0033 |
| CGCCC | 0.161 ± 0.004 |
| CGCCG | 0.43 ± 0.033 |
| CGCCA | 0.146 ± 0.048 |
| CGCCT | 0.779 ± 0.21 |
| TCTCC | 0.267 ± 0.12 |
| TCTCG | 0.368 ± 0.12 |
| AGAAT | 3.78 ± 0.51 |
| AGAAG | 0.4 ± 0.033 |
| AGAAA | 0.306 ± 0.043 |
| AGAAC | 0.267 ± 0.06 |
| ACTCC | 0.321 ± 0.011 |
| ACTCT | 0.248 ± 0.12 |
| ACTCG | 0.535 ± 0.046 |
| GGAAG | 0.341 ± 0.011 |

| Variant | ligation selection enrichment |
| --- | --- |
| GGAAT | 2.23 ± 0.17 |
| GGAAC | 0.226 ± 0.0027 |
| GGAAA | 0.282 ± 0.011 |
| CCTGA | 0.26 ± 0.038 |
| CCTGC | 0.128 ± 0.01 |
| CCTGT | 0.138 ± 0.07 |
| CCTGG | 0.381 ± 0.061 |
| ACTGC | 0.137 ± 0.025 |
| ACTGA | 0.286 ± 0.048 |
| ACTGT | 0.13 ± 0.074 |
| ACTGG | 0.421 ± 0.0057 |
| AGCAA | 0.342 ± 0.056 |
| AGCAT | 3.55 ± 0.68 |
| AGCAC | 0.319 ± 0.037 |
| AGCAG | 0.325 ± 0.015 |
| CGCAT | 3.7 ± 0.39 |
| CGCAC | 0.339 ± 0.028 |
| CGCAG | 0.2266 ± 0.0013 |
| CGCAA | 0.29 ± 0.03 |
| GGACG | 0.725 ± 0.049 |
| GGACA | 0.256 ± 0.046 |
| GGACT | 0.703 ± 0.31 |
| GGACC | 0.232 ± 0.06 |
